Measured values published in the RNAGym collection of RNA variant scans (doi:10.1073/pnas.2313332121).
Variants at the floor of the assay were thinned out.

B1: TPR 5TU (parent)
chain: GGAUCUUCUCGAUCUAACAAAAAAGACAAAUCUGCCACAAAGCUUGAGAGCAUCUUCGGAUGCAGAGGCGGCAGCCUUCGGUGGCGCGAUAGCGCCAACGUUCUCAACUAUGACACGCAAAACGCGUGCUCCGUUGAAUGGAGUUUAUCAUG

Variants of: B1
Test: polymerase ribozyme fitness, log enrichment relative to wild type (log ratio); higher = more active; in vitro selection for triplet polymerase activity
In short: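 The heterodimeric triplet polymerase ribozyme's subunits were each mutagenized into PCR-built libraries and transcribed. Every library was selected once, in triplicate, by annealing with a biotinylated primer, the partner subunit and triplets, incubating frozen at −7 °C, gel-excising extended constructs, capturing on streptavidin beads and running RT-PCR. Input and output libraries were Illumina-sequenced, with genotypes kept only at ≥10 input reads and ≥1 read per output. Fitness, from inverse-variance-weighted replicate averages, is the base-2 logarithm of genotype enrichment over wild-type enrichment.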

First: GGAUCUUCUCGAUCUAACAAAAAAGACAAAUCUGCCACAAAGCUUGCGAGCAUUUUCGGAUGCAGAGGCGGCAGCCUUCGGUUGCGCGAUAGCGCCAACGUUCUCAACUAUGACACGCAAAACGCGUGCUCCGUUGAAUGGGGUUUAUCAUG [A47C C54U G83U A142G]
Second: GGAUCCUCACGAUCUAACAAAAAAGACAAUUCUGCCACAAAGCUUGAGUGCAUCUUCGGAUGCAGAGGCGGCAGCCUUCGGUGGUGCGAUAGCGCCAACGUUCUCAACUAUGACACGCAAAACGCGUGCUCCGUUGAAUGGAGUUCAUCAUG [U6C U9A A30U A49U C85U U146C]
The “polymerase ribozyme fitness (log ratio)” value of the first is higher: -2.18 for the first, no more than -4.2 for the second.

Compared with GGAUCUUCUCGAUCUAACAAAAAAGACAAAUCUGCCACAAAGCUUGAGAGCAUCUUCGGAUGCAGAGGCGGCAGCCUUCGGUGGCGCGAUAGCGCAAACGUUGUCAACUAUGACACGCAAAACGCGUGCUCCGUUGAAUGGAGUUUAUCAUG [C96A C103G], GGAUCUUCUCGAUGUAACAAAAAAGACAAAUCUGCCACAAAGCUUGAGAGCAUCUUCGGAUGCAGAGGCGGCAGCCUUCGGUGGUGCGAUAGCGCCAACGUUCUCAACUAUGACACGCAAAACGCGUGCUCCGUUGAAUGGAGUUUAUCAUG [C14G C85U] is higher in “polymerase ribozyme fitness (log ratio)” value: -2.53 for the first, -2.1 for the second.

First: GGAUCUUCUCGAUCUAAGUAAAAAGACAAAUCUGCCACAAAGCUUGAGAGCAUCUUCGGAUGCAGAGGCGGCAGCCUUCGGUUGCGCGAUAGCGUCAACGUUCUCAACUAUGACACGUAAAACGCGUGCUCCGUUGAAUGGAGAUUAUCAUG [C18G A19U G83U C95U C118U U144A]
Second: GGAUCUUCUCGAUCUAACAAAAAAGACAAAUCUGCCACAAAGCUUGAGAGCAUCUUCGGAUGCAGAGGCGGCAGCCUUCGGUGGCACGUUAGCGCCAACGUUCUCAACUAUGACACGCAAAAUGCGUGCUCCGUUGAAUGGAGUUUAUCAUG [G86A A89U C123U]
The “polymerase ribozyme fitness (log ratio)” value of the first is lower: -3.01 for the first, -2.1 for the second.

Compared with GGAUCUUCUCGAUCUAACAAAAAAGACAAAUCUGCCACUAAGCUUGAGAGCAUCUUCGGAUGCAGAGGCGGCAGCCUUCGGUGGCGCGAUAGCGCAAACGUUCUCAACUAUGACACGCAAAACGCGUGCUCCGUUGAAUGGAGUUUAUCAUG [A39U C96A], GGGUCUUCUCGAUCUUACAAAAAAGACAAAUCUGCCACAAAGCUUGAGAGCAACUUCGGAUGCAGAGGCGGCAGUCUUCGGUGGCGCGAUAUCGCCAACGUUCUCAACUAUGACACGCAAAACGCGUGCUCCGUUGAAUGGAGUUUAUCAUG [A3G A16U U53A C75U G92U] is lower in “polymerase ribozyme fitness (log ratio)” value: -2.81 for the first, -3.54 for the second.

Compared with GGAUCUUCUCGAUCUAACAAAAAAGACAAAUCUGCCACAAAGCUUGAGAGCAUCUUCGGAUGCAGAGGCGGCAGCCUUCGGUGGCGCGAUAGGGCCAACGUUCUCAACUAUGACACGCAAAACGCGUGCUCCGUUGAAUGGAGUUUUUCAUG [C93G A147U], GGAUCUUCUCGAUCUAACAAAAAAGACCAAUCUGCCACAAAGUUUGAGAGCAUCUACGGAUGCAGAGGCGGCAGCCUUCGGUGGCGCGAUAGCGCCAACGUUCUCACCUAUGACACGCAAAACGCGUGCUCCGUUGAAUGGAGUUUAUCAUG [A28C C43U U56A A107C] is lower in “polymerase ribozyme fitness (log ratio)” value: -1.74 for the first, no more than -4.2 for the second.

Compared with GGAUCUUCUCGAUCUAACAAAAAAGACAAAUCUGCCAAAAAGCUUGAGAGCAUCUUCGGAUGAAGAGGCGGCAGCCUUCGGUGGCGCGAUAGCGUCAACGUUCUCGACUAUGACACGCAAAACGCGUGCUCCGUUGAAUGGAGUUUAUCAUG [C38A C63A C95U A106G], GGAUCUUCUCGAGCUUACAAAAAAGACAAAUCUGCCACAAAGCUUGAGAGCAUCUUCGGAUGCAGAGGCGGCAGCCUUCGGUGGUGCGAUAGCGCCAACGUUCUCAACUAUGACACGCAAAACGCGUGCUCCGUUGAAUGGAGUGUAUCAUG [U13G A16U C85U U145G] is lower in “polymerase ribozyme fitness (log ratio)” value: -1.81 for the first, -3.16 for the second.

Compared with GGAUCUUCUCGAUCUAACAAAAAAGACAAAUCUGCCACAAAGCUUGAGAGCAUCUUCGGAUGCAGAGGCGGCAGCCUUCGGUGGCUCGAUAGCGCCAACGUUCACAACUAUGACACCCAAAACGCGUGCUCCGUUGAAUGGAGUUUAUCAUG [G86U U104A G117C], GGAUCUUCUCGAUCUAACAUAAAAGACAAAUCUGCCACAAAGCUUGAGAGCAUCUUCGGAUGAAGAGGCGGCAGCCUUCGGUGUCGUGAUAGCGCCAACGUUCUCAACUAUGACACGCAAAACGCGUGCUCCGUUGAAUGGAGUUUAUCAUG [A20U C63A G84U C87U] is lower in “polymerase ribozyme fitness (log ratio)” value: -2.37 for the first, -3.3 for the second.

Going from GGAUCUUCUCGAUCGAACAAAAAAGAUAAAUCUGCCACAAAGCUUGAGAGCAUCUUCGGAUGCAGAGGCGGCAGCCUUCGGUGACGCGAUAGCGCCAACGUUCUCAACUAUGACACGCAAAACGCGUGCUCCGUUGAAUGGAGUUUAUCAUG [U15G C27U G84A] to GGAUCUUCUCGAUUUAACAAAAAAGACAAAUCUGCCACAAAGCUUGAGAGCAUCUUCGGAUGCAGAGGCGGCAGCCUUCGGUGGCGCGAUACCGCCAACGUUCUCAACUAUGACACGCAAAACGCGUGCUCCGUUGAAUGGAGUUUAUCUUG [C14U G92C A150U], the “polymerase ribozyme fitness (log ratio)” value falls from -1.78 to -4.2.

GGAUCUUCUCGAUCUAACAAAAAAGACAAAUCUGCCACUAAGCUUGAGAGCAUCUUCGGAUGCAGAGGCGGCAGCGUUCGGUGGCGCGAUAUCGCCAACGUUCUCAAUUAUGACACGCAAAACGCGUGCUCCGUUGAAUGGAGUUUAUCAUG [A39U C76G G92U C108U] and GGAUCUUCUCGAUCUAACAGAAAAGACAAAUCUGCCACAAAGCUUGAGAGCAUCUUGGGAUGCAGCGGCGGCAGCCUUCGGUGGCGCGAUAGCACCAACGUUCUCAACUAUGACACGCAAAACGCGUGCUCUGUUGAAUGGAGUUUAUCAUG [A20G C57G A66C G94A C132U] cannot be ordered by “polymerase ribozyme fitness (log ratio)” value: no more than -4.2 for the first, no more than -4.2 for the second.

With GGAUCUUCUCGAUCUAACAAAUAAGACAAAUCUGCCACAAAGCUUGAGAGCAUCUUCGGAUGCAGAGGCGGCAGCCUUCGGUGGCGCGAUAGCGCCAACGUGCUCAACUAUGACACGCAAAACGCGUGCUCCGUUGAAUGGAGUUUAUCAUG [A22U U102G] the “polymerase ribozyme fitness (log ratio)” value was -2.64.
